Target: rabbit skeletal muscle actin, filamentous (F-actin) (rabbit (Oryctolagus cuniculus), UniProt P68135 1-377)
Assay: co-sedimentation; 3 µM ABD with F-actin from 0 to 140 µM in F-buffer (10 mM Tris pH 7.5, 150 mM NaCl, 0.5 mM ATP, 2 mM MgCl2, 1 mM DTT), 30 min at 23–24 °C, pelleted at 100,000 x g; unbound ABD in the supernatant quantified on Coomassie gels; fit to Y=X/(Kd+X)
Conditions: both partners purified

Kd: 75 µM
B1: WT β-III-spectrin ABD (amino acids 1–284), pE-SUMO construct (domain or fragment)
chain: MSSTLSPTDFDSLEIQGQYSDINNRWDLPDSDWDNDSSSARLFERSRIKALADEREAVQKKTFTKWVNSHLARVTCRVGDLYSDLRDGRNLLRLLEVLSGEILPKPTKGRMRIHCLENVDKALQFLKEQKVHLENMGSHDIVDGNHRLTLGLVWTIILRFQIQDISVETEDNKEKKSAKDALLLWCQMKTAGYPNVNVHNFTTSWRDGLAFNAIVHKHRPDLLDFESLKKCNAHYNLQNAFNLAEKELGLTKLLDPEDVNVDQPDEKSIITYVATYYHYFSKMK
notes: also called WT ABD; pE-SUMO-ABD WT; source: E. coli BL21(DE3)pLysS, purified (Ni-NTA, Ulp1 cleavage, second Ni-NTA, Sephadex S100 gel filtration)
